{"source": "paper PMC5101480", "about": "(Scientific Reports, 2016)", "molecules": {"B1": {"name": "Rpn13_260-407: Rpn13 C-terminal domain (residues 260–407), human, expressed in E. coli (protein)", "chain": "QPIQLSDLQSILATMNVPAGPAGGQQVDLASVLTPEIMAPILANADVQERLLPYLPSGESLPQTADEIQNTLTSPQFQQALGMFSAALASGQLGPLMCQFGLPAEAVEAANKGDVEAFAKAMQNNAKPEQKEGDTKDKKDEEEDMSLD", "modifications": "left off: thioredoxin A (TxA), N-terminal, cleaved | His6, N-terminal, cleaved", "notes": "Rpn13 C-terminal domain (residues 260–407), human, expressed in E. coli"}}, "key": {"[1]": {"target": "T1, TPR domain of SGTA (SGTA_TPR) (Homo sapiens, UniProt O43765)", "T1 construct": "thioredoxin A (TxA) fusion (N, cleaved yes); hexahistidine tag (N, cleaved yes); made in house; host or cells: E. coli BL21(DE3) Rosetta", "T1 sequence (O43765 84-211)": "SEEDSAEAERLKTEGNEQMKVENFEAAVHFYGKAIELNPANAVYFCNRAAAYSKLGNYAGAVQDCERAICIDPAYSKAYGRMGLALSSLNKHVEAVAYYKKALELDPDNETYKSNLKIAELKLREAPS", "test": "Solution NMR CSP titration of unlabelled ligand into 15N-labelled SGTA_TPR", "type": "binding", "details": "pH 6.0, 25 °C", "method": "In order to understand molecular details underlying the interaction between SGTA and Rpn13, solution NMR studies were carried out on excised domains of SGTA and Rpn13 guided by earlier mapping studies. Reciprocal chemical shift perturbation (CSP) experiments were performed by titrating unlabelled Rpn13 C-terminal domain (residues 260–407; hereafter described as Rpn13_260-407) into ^15N-labelled TPR domain of SGTA (residues 84–211; hereafter referred to as SGTA_TPR) and vice versa. Assignments of backbone amide resonances were obtained from the BMRB (accession numbers 5709 and 17286, for SGTA_TPR and Rpn13_260-407, respectively). The ^1H-^15N HSQC spectra of both SGTA_TPR and Rpn13_260-407 show binding in a fast exchange regimen (Figs 1A and 2A). […] Binding was further confirmed by size-exclusion chromatography (SEC) and isothermal titration calorimetry (ITC) (Fig. 1C,D). […] ITC experiments yield a dissociation constant of 16.1 ± 1.4 μM in keeping with the value obtained from NMR.\nProtein samples at concentrations between 300 μM and 1 mM were prepared in 10% D2O (Sigma Aldrich), 10 mM potassium phosphate pH 6.0, 100 mM NaCl and 250 μM TCEP buffer (with 10 μM DSS for proton chemical shift referencing). All NMR experiments were acquired in 5 mm NMR tubes at 25 °C on 500 MHz and 700 MHz Bruker Avance spectrometers equipped with cryoprobes and operated by the TopSpin 3.1 software package. All NMR spectra were processed with TopSpin and analysed with CcpNMR Analysis[35]. Proteins used for NMR titrations were dialysed overnight against the same buffer (10 mM potassium phosphate pH 6.0, 100 mM NaCl and 250 μM TCEP) and mixed in different molar ratios, with the concentration of the labelled protein maintained constant. ^1H-^15N HSQC experiments were recorded for each titration point at 25 °C. Chemical shift perturbation (CSP) values were calculated for each amide signal using the following formula: […]\nwhere Δδ1H and Δδ15N are the chemical shift differences for the same amide in its free and bound state (δfree−δbound) and for proton and nitrogen chemical shift values respectively. […]"}, "[2]": {"test": "1H-15N heteronuclear NOE of Rpn13_260-407, free and SGTA_TPR-bound", "set-up": "species or system human", "details": "350 μM 15N-labelled Rpn13_260-407, 700 MHz, four second saturation transfer or control period", "method": "To study the dynamic properties of free and SGTA_TPR-bound Rpn13_260-407, ^1H- ^15N heteronuclear NOE experiments were carried out with a four second saturation transfer or control period. […] The average heteronuclear NOE enhancement value for Rpn13 residues Asp 403 to Asp 407 in the free and SGTA_TPR-bound state were −0.71 and 0.48, respectively, thus indicating the transition of the Rpn13 extreme C-terminal pentapeptide region to a more ordered state upon binding to SGTA_TPR (Fig. 2C).\nwhere Δδ1H and Δδ15N are the chemical shift differences for the same amide in its free and bound state (δfree−δbound) and for proton and nitrogen chemical shift values respectively. CSP results were mapped on to the SGTA_TPR crystal structure (PDB code 2VYI) using PyMOL. ^1H-^15N heteronuclear NOE experiments were performed with a four second saturation transfer or control period at 700 MHz. Sample concentrations of ^15N-labelled Rpn13_260-407 were maintained at 350 μM both in its free and bound state with unlabelled SGTA_TPR at a 1:1 molar ratio."}, "[3]": {"target": "T1, TPR domain of SGTA (SGTA_TPR)", "test": "Size exclusion chromatography (SEC) complex formation with SGTA_TPR", "type": "binding", "details": "mixed in 1:1 molar ratio", "method": "In order to understand molecular details underlying the interaction between SGTA and Rpn13, solution NMR studies were carried out on excised domains of SGTA and Rpn13 guided by earlier mapping studies. Reciprocal chemical shift perturbation (CSP) experiments were performed by titrating unlabelled Rpn13 C-terminal domain (residues 260–407; hereafter described as Rpn13_260-407) into ^15N-labelled TPR domain of SGTA (residues 84–211; hereafter referred to as SGTA_TPR) and vice versa. Assignments of backbone amide resonances were obtained from the BMRB (accession numbers 5709 and 17286, for SGTA_TPR and Rpn13_260-407, respectively). The ^1H-^15N HSQC spectra of both SGTA_TPR and Rpn13_260-407 show binding in a fast exchange regimen (Figs 1A and 2A). […] Binding was further confirmed by size-exclusion chromatography (SEC) and isothermal titration calorimetry (ITC) (Fig. 1C,D). […]\nSGTA_TPR and Rpn13 plasmids were transformed into E. coli BL21(DE3) Rosetta cells, with protein expression induced by adding 0.3–0.5 mM isopropyl-β-D-thiogalactopyranoside (IPTG) to bacterial cultures in LB media at OD600 ≈ 0.8, followed by overnight incubation at 18 °C. […] Proteins were concentrated using Vivaspin concentrators (Sartorius Stedin) and sample purity and homogeneity was assessed by SDS-PAGE, mass spectrometry and NMR. […]"}}, "note": "“Also recorded” adds a separate entry of the source.", "data": [{"molecule": "B1", "values": [{"measurement": "effect on SGTA_TPR helix-7 residues 203–209 amide signals", "setting": "[1]; 3-fold molar excess of unlabelled ligand", "result": "perturbed"}, {"measurement": "CSP of SGTA_TPR backbone amide signals, result in words", "setting": "[1]; unlabelled ligand into 15N-labelled SGTA_TPR, Rpn13_260-407 up to 8 equivalents, Rpn13_260-402 up to 6-fold molar excess", "result": "Widespread perturbation of backbone amide signals; also recorded: cannot be fitted to a meaningful binding isotherm"}, {"measurement": "average heteronuclear NOE enhancement value, residues Asp 403 to Asp 407", "setting": "[2]; SGTA_TPR-bound state, 1:1 molar ratio", "result": 0.48}, {"measurement": "average heteronuclear NOE enhancement value, residues Asp 403 to Asp 407", "setting": "[2]; free state", "result": "−0.71"}, {"measurement": "SEC complex formation with SGTA_TPR", "setting": "[3]", "result": "clearly indicative of a stable complex; also recorded: formation of a stable complex"}]}]}
